According to patent US20140322218A1 (Amgen, published 2014):
Substitutions are numbered along the chain they refer to. Numbers in names are those of the source. Values belong to the binder of their own block, whether it stands above or below them.

What was measured:
[1] = molecular target: T1, huCDH19(44-772), Flag-tagged, on 293T cells (human, UniProt Q9H159 44-772); assay: FACS, transfected 293T
T1 construct: Expressed with native leader (1-43) followed by a Flag tag; leader left out; also called Hu EC1-5
Description: (§1) The experiment included assaying the anti-CDH19 antibodies against mouse Cadherin19 to determine suitability for binning on these human/mouse chimeras.

[2] = molecular target: T2, huCDH19(44-141)::muCDH19(140-770), Flag-tagged, on 293T cells (human/mouse chimera); assay: FACS, transfected 293T
T2 construct: also called Hu EC1
Description: as §1

[3] = molecular target: T3, huCDH19(44-249)::muCDH19(248-770), Flag-tagged, on 293T cells (human/mouse chimera); assay: FACS, transfected 293T
T3 construct: also called Hu EC1-2; C137896
Description: as §1

Cyno Cadherin-19 = molecular target: T4, Cyno Cadherin-19 (cynomolgus monkey (Macaca fascicularis), UniProt Q9H159 44-772 (human entry)); assay: FACS, recombinant cyno CDH19
T4 construct: also called cyno CDH19; cynomologous CDH-19
T4 chain: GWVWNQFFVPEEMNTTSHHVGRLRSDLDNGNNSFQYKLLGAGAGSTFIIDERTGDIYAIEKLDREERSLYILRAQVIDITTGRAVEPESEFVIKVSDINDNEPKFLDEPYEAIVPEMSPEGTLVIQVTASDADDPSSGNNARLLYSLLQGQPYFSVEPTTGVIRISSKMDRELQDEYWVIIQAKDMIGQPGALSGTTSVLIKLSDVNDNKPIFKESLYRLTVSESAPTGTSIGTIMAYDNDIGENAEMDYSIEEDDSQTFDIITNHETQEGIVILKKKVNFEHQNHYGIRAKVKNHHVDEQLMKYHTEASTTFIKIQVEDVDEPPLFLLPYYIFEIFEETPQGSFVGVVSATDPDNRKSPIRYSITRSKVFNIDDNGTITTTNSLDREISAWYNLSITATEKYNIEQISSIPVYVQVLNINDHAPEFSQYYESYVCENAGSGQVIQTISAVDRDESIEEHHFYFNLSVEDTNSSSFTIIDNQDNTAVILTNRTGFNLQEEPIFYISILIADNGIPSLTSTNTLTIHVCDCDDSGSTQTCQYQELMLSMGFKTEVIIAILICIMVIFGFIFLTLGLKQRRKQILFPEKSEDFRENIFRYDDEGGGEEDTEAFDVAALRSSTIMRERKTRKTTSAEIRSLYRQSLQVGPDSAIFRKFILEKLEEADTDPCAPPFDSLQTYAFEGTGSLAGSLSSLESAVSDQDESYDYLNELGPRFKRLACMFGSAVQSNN

Human Cadherin-19 = molecular target: T5, Human Cadherin-19 (human, UniProt Q9H159 44-772); assay: FACS, endogenous CDH19 on CHL-1/Colo699
T5 construct: Residues 1-43 are named as the native leader in the construct designations and are left out; also called human CDH19; huCDH19
Protocol: FACS binding assays were performed to evaluate the binding of the anti-Cadherin-19 receptor specific antibodies to endogenous Cadherin-19 receptor expressed on the CHL-1 tumor cell lines.
FACs assays were performed by incubating hybridoma supernatants with 10,000 to 25,000 cells in PBS/2% Fetal bovine serum/2 mM Calcium Chloride at 4° C. for one hour followed by two washes with PBS/2% Fetal bovine serum/2 mM Calcium Chloride. Cells were then treated with florochrome-labeled secondary antibodies at 4° C. followed by one wash. The cells were resuspended in 50 μl of PBS/2% FBS and antibody binding was analyzed using a FACSCalibur™ instrument.

[4] = molecular target: T6, (1-43)::FLAG::ckCDH19(44-468)::huCDH19(464-772), on 293T cells (human/chicken chimera); assay: FACS, transfected 293T;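 further: antibody binding to chimera-expressing cells with 2 mM CaCl2 present, cell-bound Alexa647-labelled antibody read by flow cytometry, mock-transfected cells serving as control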
T6 construct: Entry holds leader (1-43), Flag tag and CDH19 part; leader left out; also called Hu EC5 (chicken backbone)
T6 chain: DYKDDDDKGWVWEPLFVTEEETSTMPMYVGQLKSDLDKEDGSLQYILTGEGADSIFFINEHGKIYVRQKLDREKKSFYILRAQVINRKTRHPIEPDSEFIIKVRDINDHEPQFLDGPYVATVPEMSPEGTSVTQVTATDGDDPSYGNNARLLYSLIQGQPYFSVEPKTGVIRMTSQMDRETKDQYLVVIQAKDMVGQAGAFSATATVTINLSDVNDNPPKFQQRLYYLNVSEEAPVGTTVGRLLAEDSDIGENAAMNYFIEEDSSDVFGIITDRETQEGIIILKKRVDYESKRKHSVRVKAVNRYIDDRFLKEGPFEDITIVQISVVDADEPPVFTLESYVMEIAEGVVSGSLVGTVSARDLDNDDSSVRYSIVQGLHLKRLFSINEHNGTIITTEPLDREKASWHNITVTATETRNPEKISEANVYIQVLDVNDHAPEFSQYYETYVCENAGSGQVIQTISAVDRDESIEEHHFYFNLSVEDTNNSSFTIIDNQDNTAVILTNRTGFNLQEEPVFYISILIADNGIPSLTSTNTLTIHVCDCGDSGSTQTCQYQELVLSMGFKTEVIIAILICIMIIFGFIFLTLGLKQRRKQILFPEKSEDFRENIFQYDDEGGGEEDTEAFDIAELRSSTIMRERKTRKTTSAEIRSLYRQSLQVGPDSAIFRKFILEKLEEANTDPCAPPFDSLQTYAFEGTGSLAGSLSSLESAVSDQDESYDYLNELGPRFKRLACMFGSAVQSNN
Protocol: (§2) The following binding assay was completed in presence of 2 mM CaCl2. […] Cells were then washed one time and the amount of cell associated Alexa647-labelled Ab was quantitated by flow cytometry. The experiments included mock transfected controls.

[5] = molecular target: T7, ckCDH19(1-43)::FLAG::ckCDH19(44-776), on 293T cells (chicken); assay: FACS, transfected 293T;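 further: antibody binding to chimera-expressing cells with 2 mM CaCl2 present, cell-bound Alexa647-labelled antibody read by flow cytometry, mock-transfected cells serving as control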
T7 construct: Entry holds leader (1-43), Flag tag and CDH19 part; leader left out; also called Ck EC1-5
T7 chain: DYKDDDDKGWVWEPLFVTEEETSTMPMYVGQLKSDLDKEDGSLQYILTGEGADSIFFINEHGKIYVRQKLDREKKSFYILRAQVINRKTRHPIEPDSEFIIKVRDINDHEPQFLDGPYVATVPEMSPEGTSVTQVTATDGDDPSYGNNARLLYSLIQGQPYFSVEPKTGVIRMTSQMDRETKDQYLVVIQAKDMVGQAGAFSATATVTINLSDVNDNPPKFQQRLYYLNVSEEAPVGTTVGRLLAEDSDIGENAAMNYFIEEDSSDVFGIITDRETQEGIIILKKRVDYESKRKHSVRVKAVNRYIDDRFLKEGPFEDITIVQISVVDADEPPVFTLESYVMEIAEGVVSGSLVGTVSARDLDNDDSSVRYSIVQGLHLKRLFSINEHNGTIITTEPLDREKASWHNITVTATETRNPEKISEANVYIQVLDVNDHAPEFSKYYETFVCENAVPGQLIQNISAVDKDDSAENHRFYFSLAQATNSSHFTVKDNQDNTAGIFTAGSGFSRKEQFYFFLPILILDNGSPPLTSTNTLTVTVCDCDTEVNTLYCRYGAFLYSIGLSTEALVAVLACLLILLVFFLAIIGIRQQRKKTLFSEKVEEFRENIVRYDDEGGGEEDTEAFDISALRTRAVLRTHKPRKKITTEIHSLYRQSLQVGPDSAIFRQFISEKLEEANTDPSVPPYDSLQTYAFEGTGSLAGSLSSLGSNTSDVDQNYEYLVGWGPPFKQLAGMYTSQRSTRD
Protocol: as §2

[6] = molecular target: T8, ckCDH19(1-43)::FLAG::ckCDH19(44-141)::huCDH19(142-249)::ckCDH19(250-776), on 293T cells (human/chicken chimera); assay: FACS, transfected 293T;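 further: antibody binding to chimera-expressing cells with 2 mM CaCl2 present, cell-bound Alexa647-labelled antibody read by flow cytometry, mock-transfected cells serving as control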
T8 construct: Entry holds leader (1-43), Flag tag and CDH19 part; leader left out; also called Hu EC2 (chicken backbone)
T8 chain: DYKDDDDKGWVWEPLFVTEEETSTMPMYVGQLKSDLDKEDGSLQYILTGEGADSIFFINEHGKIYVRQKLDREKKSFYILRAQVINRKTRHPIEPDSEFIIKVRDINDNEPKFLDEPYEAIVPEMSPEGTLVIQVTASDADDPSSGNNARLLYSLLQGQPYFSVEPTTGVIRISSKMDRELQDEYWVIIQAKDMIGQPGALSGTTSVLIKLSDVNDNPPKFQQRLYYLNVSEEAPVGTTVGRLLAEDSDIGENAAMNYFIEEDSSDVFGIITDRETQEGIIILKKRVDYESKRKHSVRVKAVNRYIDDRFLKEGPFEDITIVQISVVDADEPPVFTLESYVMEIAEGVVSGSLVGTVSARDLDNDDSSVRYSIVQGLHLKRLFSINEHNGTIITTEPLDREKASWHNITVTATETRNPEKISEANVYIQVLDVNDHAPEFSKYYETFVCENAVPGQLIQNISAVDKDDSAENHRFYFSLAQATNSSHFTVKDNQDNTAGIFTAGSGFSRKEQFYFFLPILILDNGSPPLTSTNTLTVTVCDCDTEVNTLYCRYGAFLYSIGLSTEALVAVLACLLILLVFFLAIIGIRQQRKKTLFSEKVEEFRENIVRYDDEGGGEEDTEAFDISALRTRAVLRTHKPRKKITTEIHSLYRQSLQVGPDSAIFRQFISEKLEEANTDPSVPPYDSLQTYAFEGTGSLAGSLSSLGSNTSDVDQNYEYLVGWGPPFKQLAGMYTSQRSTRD
Protocol: as §2

[7] = molecular target: T9, huCDH19(1-43)::FLAG::hu(44-141)::ckCDH19(142-776), on 293T cells (human/chicken chimera); assay: FACS, transfected 293T;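 further: antibody binding to chimera-expressing cells with 2 mM CaCl2 present, cell-bound Alexa647-labelled antibody read by flow cytometry, mock-transfected cells serving as control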
T9 construct: Entry holds leader (1-43), Flag tag and CDH19 part; leader left out; also called Hu EC1 (chicken backbone)
Protocol: as §2

binding result (Cyno Cadherin-19): binds
binding result (Human Cadherin-19): binds
B8: hu anti-<huCDH19> 22D1.1 VH::huIgG1z / 22D1.1 VL::huLLC-C2 (Ab ID 13879) (antibody, V domains shown)
VH: QVQLVQSGAEVKKPGASVRVSCKVSGYTFTSYFIHWVRQAPGQGLEWMGIINPISVSTSYAQKFQGRVTMTRDTSTSTVFMELSSLRSEDTAVYYCARGGIQLWLHLDYWGQGTLVTVSS
VL: QSALTQPPSATGTPGQRVTISCSGSSSNIGSNFVNWYKQLPGTAPKVLIYTNNQRPSGVPDRFSGSKSGTSASLAISGLQSEDESDYYCATWDDSMNGWVFGGGTKLTVLG

binding result (Cyno Cadherin-19): binds
binding result (Human Cadherin-19): binds
B9: hu anti-<huCDH19> 19B5.1 VH::huIgG1z / 19B5.1 VL::huLLC-C2 (Ab ID 13885) (antibody, V domains shown)
VH: B8 VH with R19K
VL: B8 VL with A10T, S26R

binding result [4]: no binding (tested: 5 ug/ml)
binding result [5]: no binding (tested: 5 ug/ml)
binding result [6]: no binding (tested: 5 ug/ml)
binding result [7]: binds
B10: hu anti-<huCDH19> 17H8.2 VH::huIgG1z / 17H8.2 VL::huKLC (Ab ID 13874) (antibody, V domains shown)
VH: QVQLQESGPGLVKPSETLSLTCTVSGGSINSYYWSWIRQPPGKGLEWIGYIYYIGSTNYNPSLKSRVTISVDTSKNQFSLKLSSVTAADTALYYCARDSRYRSGWYDAFDIWGQGTMVTVSS
VL: DIVLTQSPGTLSLSPGERATLSCRASQSVAGSYLAWYQQKPGQAPRLLISGASSRATGIPDRFSGSGSGTDFTLTISRLEPEDFAVYYCQQYGKSPITFGQGTRLEMKG
notes: also called 23B6; 28D10

Continued, binder first:

B1: hu anti-<huCDH19> 4B10 (1-471)(R17G,D61E,D72E) VH::huIgG1z / 4B10 (1-236)(H45Q,A90T) VL::huKLC (Ab ID 14055) (antibody, V domains shown)
VH: QVQLVESGGGVVQPGGSLRLSCAASGFTFSSYDMHWVRQAPGKGLEWVAVISYEGTNEYYAESVKGRFTISRDTSKNTLYLQMNSLRAEDTAVYYCARERYFDWSFDYWGQGTLVSVSS
VL: EIVLTQSPGTLSLSPGERATLSCRASQSVSNTYLAWYQQRPGQAPRLLIYGASSRATGIPDRFSGSGSGTDFTLTISSLEPEDFAVYYCQQYSNSWTFGQGTKVEIKR
notes: Engineered variant of 4B10
binding result [1]: binds

B2: hu anti-<huCDH19> 26D1.1 (1-469)(R27G,G82R) VH::huIgG1z / 26D1.1 (1-235)(H1Q,S7P) VL::huLLC-C2 (Ab ID 14088) (antibody, V domains shown)
VH: QVQLVQSGAEVKKPGASVKVSCKASGYTFTSYYMSWVRQAPGQGLEWMGIIHPSGGDTTYAQKFQGRVTMTRDTSTSTVYMELSSLRSEDTAVYYCARGGIKLWLHFDYWGQGTLVTVSS
VL: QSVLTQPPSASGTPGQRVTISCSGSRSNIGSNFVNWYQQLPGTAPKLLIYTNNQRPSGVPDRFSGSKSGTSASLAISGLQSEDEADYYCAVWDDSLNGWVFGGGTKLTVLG
notes: Engineered variant of 26D1
binding result [2]: binds
binding result [1]: binds
binding result [3]: binds

B3: hu anti-<huCDH19> 4A9 VH::huIgG1z / 4A9 (1-239)(F47L) VL::huLLC-C1 (Ab ID 14056) (antibody, V domains shown)
VH: QVQLQESGPGLVKPSETLSLTCTVSGGSISGYYWSWIRQPPGKGLEWFAYFSYSGSTNYNPSLKSRVTLSVDTSKNQFSLKLSSVTAADTAVYYCARNWAFHFDFWGQGTLVTVSS
VL: QSVLTQPPSVSGAPGQRVTISCTGSSSNIGTGYAVHWYQQLPGTAPKLLIYGNNNRPSGVPDRFSGSKSGTSASLAITGLQAEDEADYYCQSYDSRLSGWVFGGGTKLTVLG
notes: Engineered variant of 4A9
binding result [2]: binds
binding result [1]: binds
binding result [3]: binds

B4: hu anti-<huCDH19> 4F7 VH::huIgG1z / 4F7 VL::huLLC-C1 (Ab ID 13591) (antibody, V domains shown)
VH: B3 VH with G31S, Y33S, F48I, A49G, F51I, S52Y, L69I, V71L, F105Y
VL: B3 VL with A34D, Y51H, N54S, R96S, K107R
binding result (Cyno Cadherin-19): binds
binding result (Human Cadherin-19): binds

B5: hu anti-<huCDH19> 4A9 (1-468)(F55I,A56G) VH::huIgG1z / 4A9 (1-239)(F47L) VL::huLLC-C1 (Ab ID 14057) (antibody, V domains shown)
VH: B3 VH with F48I, A49G
VL: B3 VL
notes: Engineered variant of 4A9
binding result [2]: binds
binding result [1]: binds
binding result [3]: binds

B6: hu anti-<huCDH19> 20D3.1 VH::huIgG1z / 20D3.1 VL::huLLC-C2 (Ab ID 13878) (antibody, V domains shown)
VH: B8 VH with R19K, L107F
VL: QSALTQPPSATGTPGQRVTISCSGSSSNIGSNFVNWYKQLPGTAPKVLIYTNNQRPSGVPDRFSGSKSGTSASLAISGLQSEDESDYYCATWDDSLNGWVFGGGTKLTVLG
notes: also called 16H2; 23E7
binding result (Cyno Cadherin-19): binds
binding result (Human Cadherin-19): binds

B7: hu anti-<huCDH19> 25F8.1 VH::huIgG1z / 25F8.1 (1-235)(K45Q,S102A) VL::huLLC-C2 (Ab ID 14094) (antibody, V domains shown)
VH: B2 VH with M34I, S35H, H52N, D57S, T59R, Y80F, K102Q
VL: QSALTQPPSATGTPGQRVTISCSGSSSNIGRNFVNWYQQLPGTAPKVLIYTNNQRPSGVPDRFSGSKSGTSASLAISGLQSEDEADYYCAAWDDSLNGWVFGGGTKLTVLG
notes: Engineered variant of 25F8
binding result [2]: binds
binding result [1]: binds
binding result [3]: binds
